According to publication PMC9198586:

Target: p53 (human, wild type) (human (endogenous in HCT 116, MCF7, U2OS)), P04637
Experiment: co-IP; HCT 116 colon cancer cells, untreated or treated with RITA; co-immunoprecipitation of p53/MDM2 or p53/MDM4 as described previously (Issaeva et al., 2004)
Conditions: remark: other sources report otherwise

Sequence of p53 (human, wild type) (human (endogenous in HCT 116, MCF7, U2OS)), P04637 (P04637 whole entry): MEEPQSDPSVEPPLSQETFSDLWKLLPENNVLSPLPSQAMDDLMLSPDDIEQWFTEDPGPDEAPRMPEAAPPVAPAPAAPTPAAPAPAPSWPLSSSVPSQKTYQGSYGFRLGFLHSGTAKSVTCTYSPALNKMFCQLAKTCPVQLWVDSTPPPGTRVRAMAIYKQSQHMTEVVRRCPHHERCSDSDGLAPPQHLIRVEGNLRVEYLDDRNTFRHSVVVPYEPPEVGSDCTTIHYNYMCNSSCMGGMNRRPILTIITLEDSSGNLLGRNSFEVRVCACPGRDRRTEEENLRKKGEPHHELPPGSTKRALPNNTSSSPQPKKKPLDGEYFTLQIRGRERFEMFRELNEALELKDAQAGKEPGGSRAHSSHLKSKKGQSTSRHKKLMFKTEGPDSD

B1: MDM4 (MDMX), human, O15151 1-490 (natural protein)
chain: MTSFSTSAQCSTSDSACRISPGQINQVRPKLPLLKILHAAGAQGEMFTVKEVMHYLGQYIMVKQLYDQQEQHMVYCGGDLLGELLGRQSFSVKDPSPLYDMLRKNLVTLATATTDAAQTLALAQDHSMDIPSQDQLKQSAEESSTSRKRTTEDDIPTLPTSEHKCIHSREDEDLIENLAQDETSRLDLGFEEWDVAGLPWWFLGNLRSNYTPRSNGSTDLQTNQDVGTAIVSDTTDDLWFLNESVSEQLGVGIKVEAADTEQTSEEVGKVSDKKVIEVGKNDDLEDSKSLSDDTDVEVTSEDEWQCTECKKFNSPSKRYCFRCWALRKDWYSDCSKLTHSLSTSDITAIPEKENEGNDVPDCRRTISAPVVRPKDAYIKKENSKLFDPCNSVEFLDLAHSSESQETISSMGEQLDNLSEQRTDTENMEDCQNLLKPCSLCEKRPRDGNIIHGRTGHLVTCFHCARRLKKAGASCPICKKEIQLVIKVFIA
percent reduction of the amount of MDMX bound to p53 by RITA: 43%
